The target of assay [1] is T1, human plasma kallikrein (human, UniProt P03952 20-390; P03952 391-638).
T1 construct: also called pKal; human pKal
Briefly: ELISA; signal on biotinylated plasma kallikrein divided by signal on streptavidin background. The source says: Abbreviations used: “T/B” is the ELISA signal obtained using of the “target” (biotinylated plasma kallikrein) divided by the ELISA signal of the “background” (streptavidin); both of which were coated on microtiter plates. “nd” is not determined. The symbol “q” refers to the amber suppressible stop codon (TAG), which is translated as glutamine (Q) in strains of E. coli such as the TG1 cells that were used to express the Fab fragments.
For orientation: In an ELISA, binding on a coated surface is turned into a signal by an enzyme label.

Assay [2] has as its target T1, human plasma kallikrein. Kind of assay: apparent Ki (Ki,app), inhibition of human pKal activity.

Changes are numbered by the printed parent chain.

The results in this text go back to patent US20100183625A1 (published 2010).

T1 sequence (P03952 20-390, chain 1 of 2): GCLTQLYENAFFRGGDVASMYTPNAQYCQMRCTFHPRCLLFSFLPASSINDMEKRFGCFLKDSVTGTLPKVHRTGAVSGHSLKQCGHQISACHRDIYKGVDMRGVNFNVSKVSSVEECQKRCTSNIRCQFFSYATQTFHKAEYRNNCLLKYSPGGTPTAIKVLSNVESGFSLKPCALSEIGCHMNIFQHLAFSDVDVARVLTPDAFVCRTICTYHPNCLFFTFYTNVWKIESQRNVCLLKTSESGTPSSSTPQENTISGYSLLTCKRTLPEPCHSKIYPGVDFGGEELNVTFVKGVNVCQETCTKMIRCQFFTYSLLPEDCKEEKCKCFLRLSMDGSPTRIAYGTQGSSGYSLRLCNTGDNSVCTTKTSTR
T1 sequence (P03952 391-638, chain 2 of 2): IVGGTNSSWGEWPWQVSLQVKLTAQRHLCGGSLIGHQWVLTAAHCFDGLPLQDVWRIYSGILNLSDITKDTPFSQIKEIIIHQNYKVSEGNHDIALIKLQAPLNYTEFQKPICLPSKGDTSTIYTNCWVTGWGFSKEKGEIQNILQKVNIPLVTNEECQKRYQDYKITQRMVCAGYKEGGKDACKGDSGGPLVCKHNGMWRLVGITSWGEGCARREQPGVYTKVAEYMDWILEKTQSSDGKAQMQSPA

B1: M6-D09 (antibody, V domains shown)
VH: EVQLLESGGGLVQPGGSLRLSCAASGFTFSFYYMVWVRQAPGKGLEWVSVIYPSGGITVYADSVKGRFTISRDNSKNTLYLQMNSLRAEDTAVYYCARDKWAVMPPYYYYAMDVWGQGTTVTVSS
VL: DIQMTQSPSSLSASVSDRVTITCRASQSIRNYLNWYQQKPSKAPNLLIYAASTLQSGVPARFSGSGSGTDFTLTISSLQPEDFATYYCQQLSGYPHTFGQGTKLEIK
For B1, the “ELISA (T/B)” value with human plasma kallikrein [1] was found to be 39.9 T/B ratio. Besides, the Ki in the assay with human plasma kallikrein [2] was determined as 5.9 nM.

B2: M162-A04 (antibody, V domains shown)
VH: EVQLLESGGGLVQPGGSLRLSCAASGFTFSHYIMMWVRQAPGKGLEWVSGIYSSGGITVYADSVKGRFTISRDNSKNTLYLQMNSLRAEDTAVYYCAYRRTGIPRRDAFDIWGQGTMVTVSS
VL: DIQMTQSPSTLSASVGDRVTITCRASQSISSWLAWYQQKPGKAPNLLIYKASTLESGVPSRFSGSGSGTEFTLTISSLQPDDFATYYCQQYNTYWTFGQGTKVEIK
With B2, in the assay with human plasma kallikrein [1], the “ELISA (T/B)” value was determined as 11.4 T/B ratio.

B3: M73-D06 (antibody, V domains shown)
VH: EVQLLESGGGLVQPGGSLRLSCAASGFTFSRYEMYWVRQAPGKGLEWVSSISSSGGPTAYADSVKGRFTISRDNSKNTLYLQMNSLRAEDTAMYYCAKGTPKWELLLRSIYIENAFDIWSQGTMVTVSS
VL: QSELTQPPSASETPSQRVTISCSGSSSNIGSNTVSWFQQLPGSAPRLLIYNDHRRPSGVPDRFSGSKSGTSASLVISGLQSQDEADYYCSAWDDSLNGVVFGGGTKLTVL
As for B3, the “ELISA (T/B)” value with human plasma kallikrein [1] was found to be 4 T/B ratio.

B4: M7-E07 (antibody, V domains shown)
VH: EVQLLESGGGLVQPGGSLRLSCAASGFTFSWYLMIWVRQAPGKGLEWVSYIYPSGGFTYYADSVKGRFTISRDNSKNTLYLQMNSLRAEDMAVYYCARTEGPLSWGYGMDVWGQGTTVTVSS
VL: not shown
As to B4, in the assay with human plasma kallikrein [1], the “ELISA (T/B)” value was 45.7 T/B ratio.

B5: M27-E05 (antibody, V domains shown)
VH: B4 VH
VL: not shown
In the case of B5, the “ELISA (T/B)” value with human plasma kallikrein [1] came out at 41.3 T/B ratio.

B6: M160-G12 (antibody, V domains shown)
VH: EVQLLESGGGLVQPGGSLRLSCAASGFTFSHYLMTWVRQAPGKGLEWVSYISPSGGHTIYADSVKGRFTISRDNSKNTLYLQMNSLRAEDTAVYYCARVARGIAARSRTSYFDYWGQGTLVTVSS
VL: DIQMTQSPSFLSASVGDRVTITCRASQGISSYLAWYQQKPGKAPKLLIYAASTLQSGVPSRFSGSGSGTEFTLTISSLQPEDFATYYCQQLNSYPLTFGGGTKVEIK
Turning to B6, the “ELISA (T/B)” value in the assay with human plasma kallikrein [1] was 38.3 T/B ratio.

B7: M10-F10 (antibody, V domains shown)
VH: EVQLLESGGGLVQPGGSLRLSCAASGFTFSFYNMNWVRQAPGKSLEWVSSISPSGGETNYADSVKGRFTISRDNSKNTLYLQMNSLRAEDTAVYYCARGGGAYRNNWWGGFDIWGLGTMVTVSS
VL: DIQMTQSPSSLSASVGDRVTITCRASQSISVYLNWYQHKPGKAPKLLIYGASNLQFGVPSRFSGSGYGTDFTLTISSLQPEDFATYHCQQTFSLFTFGGGTKVEIK
Take B7: the “ELISA (T/B)” value with human plasma kallikrein [1] is 39.2 T/B ratio. For the same molecule, the Ki with human plasma kallikrein [2] is below 100 nM.

B8: M142-H08 (antibody, V domains shown)
VH: EVQLLESGGGLVQPGGSLRLSCAASGFTFSAYSMIWVRQAPGKGLEWVSYIRPSGGRTTYADSVKGRFTISRDNSKNTLYLQMNSLRAEDTAVYYCARGGLLLWFRELKSNYFDYWGQGTLVTVSS
VL: DIQMTQSPSSLSAFVGDRVTITCRASQPIDNYLNWYHQKPGKAPKLLIYAASRLQSGVPSRLSGSGFGTDFTLTISSLQPEDFGNYYCQQSYTVPYTFGGGTKVEIR
With B8, the “ELISA (T/B)” value with human plasma kallikrein [1] stood at 29.9 T/B ratio.

B9: M8-A09 (antibody, V domains shown)
VH: EVQLLESGGGLVQPGGSLRLSCAASGFTFSTYFMLWVRQAPGKGLEWVSSIYPSGGNTVYADSVKGRFTISRDNSKNTLYLQMNSLRAEDTAVYYCARAASPVRNYYYYGMDVWGQGTTVTVSS
VL: QCELTQPPSESVSPGQTANITCSGDKLGNKYAYWYQQKPGQSPVLVIYQDNNRPSGIPERFSGSNSGNTATLTISGTQAIDEANYYCQAWDSRTVVFGGGTKLTVL
For B9, the “ELISA (T/B)” value with human plasma kallikrein [1] came to 5.4 T/B ratio.

B10: M146-E12 (antibody, V domains shown)
VH: EVQLLESGGGLVQPGGSLRLSCAASGFTFSRYIMHWVRQAPGKGLEWVSSISPSGGLTSYADSVKGRFTISRDNSKNTLYLQMNSLRAEDTAVYYCAREFENAYHYYYYGMDVWGQGTTVTVSS
VL: DIQMTQSPSSLSASVGDRVTITCRASGDIGNALGWYQQKPGKAPRLLISDASTLQSGVPLRFSGSGSGTEFTLTISSLQPEDFATYYCLQGYNYPRTFGQGTKLEIR
Regarding B10, the “ELISA (T/B)” value with human plasma kallikrein [1] stood at 40.6 T/B ratio.

B11: M35-G04 (antibody, V domains shown)
VH: EVQLLESGGGLVQPGGSLRLSCAASGFTFSYYHMSWVRQAPGKGLEWVSVISPSGGSTKYADSVKGRFTISRDNSKNTLYLQMNSLRAEDTAVYYCARGGSSDYAWGSYRRPYYFDYWGQGTLVTVSS
VL: DIQMTQSPATLSLSPGERATLSCRASQSVSSYLAWYQQKPGQAPRLLIYDASNRATGIPARFSGSGSGTDFTLTISSLEPEDFAVYYCQQRSNWPRGFTFGPGTKVDIK
Consider B11, for which, in the assay with human plasma kallikrein [1], the “ELISA (T/B)” value was determined as 11.1 T/B ratio.

B12: M145-D01 (antibody, V domains shown)
VH: B11 VH
VL: B11 VL
For B12, the “ELISA (T/B)” value in the assay with human plasma kallikrein [1] is 6.2 T/B ratio.

B13: M38-F02 (antibody, V domains shown)
VH: EVQLLESGGGLVQPGGSLRLSCAASGFTFSYYMMVWVRQAPGKGLEWVSYIYSSGGHTVYADSVKGRFTISRDNSKNTLYLQMNSLRAEDTAVYYCARDLFLYDFWSKGAFDIWGQGTMVTVSS
VL: QSVLTQPPSVSVSPSQTASITCSGEKLGDKYVSWYQQKPGQSPSLVICEDSRRPSGIPERFSGSNSGNTATLTISGAQPMDEADYYCQAWDSSTAIFGPGTKVTVL
Regarding B13, in the assay with human plasma kallikrein [1], the “ELISA (T/B)” value was found to be 33.5 T/B ratio.

B14: M161-C11 (antibody, V domains shown)
VH: EVQLLESGGGLVQPGGSLRLSCAASGFTFSDYAMKWVRQAPGKGLEWVSSISSSGGVTQYADSVKGRFTISRDNSKNTLYLQMNSLRAEDTAVYYCAREEDYSSSWYSRRFDYYYGMDVWGQGTTVTVSS
VL: QSALTQPPSVSVSPGQTASITCSGDKLGDKYVSWYQQRPGQSPVLVIYQDTKRPSGIPERFSGSNSGNTATLTISGTQAVDEADYYCQAWDSSTYVFGGGTKVTVL
With B14, in the assay with human plasma kallikrein [1], the “ELISA (T/B)” value was determined as 41.8 T/B ratio.

B15: M110-C12 (antibody, V domains shown)
VH: EVQLLESGGGLVQPGGSLRLSCAASGFTFSYYEMDWVRQAPGKGLEWVSGISSSGGHTAYADSVKGRFTISRDNSKNTLYLQMNSLRAEDTATYYCARERRSSSRARYYYGMDVWGQGTTVTVSS
VL: DIQMTQSPLSLSVTPGEPASISCRSSLSLLHSNGYNYLDWYVQRPGQSPQLLMYLSSTRASGVPDRFSGSGSGTDFTLEISRVEAEDVGVYYCMQPLETPPTFGGGTKVEIK
In the case of B15, the “ELISA (T/B)” value in the assay with human plasma kallikrein [1] amounted to 2.4 T/B ratio.

B16: M7-B04 (antibody, V domains shown)
VL: QSALTQPASVSGSPGQSITISCTGTNSDVGNYNLVSWYQQHPGEAPKLLIYEVNKRPSGVSNRFSGSKSGNTASLTISGLQAEDEADYLCCSYAGNRNFYVFGAGTKVTVL
VH: EVQLLESGGGLVQPGGSLRLSCAASGFTFSWYSMVWVRQAPGKGLEWVSSISPSGGLTNYADSVKGRFTISRDNSKNTLYLQMNSLRAEDTAVYYCARHTAARPFYYYYMDVWSKSTTVTVSSASTKGPSVFPLAPSSKS
On to B16, for which the “ELISA (T/B)” value with human plasma kallikrein [1] stood at 4.1 T/B ratio. The Ki with human plasma kallikrein [2] turned out to be 54 nM.

B17: M12-B05 (antibody, V domains shown)
VH: EVQLLESGGGLVQPGGSLRLSCAASGFTFSWYTMVWVRQAPGKGLEWVSYIYPSGGATFYADSVKGRFTISRDNSKNTLYLQMNSLRAEDTAVYYCAMGSYDYIWGFYSDHWGQGTLVTVSS
VL: QSALTQPPTVSVSPGQTARITCSGNKLGDKYVAWYQQKPGQSPMLVIYQDTKRPSRVSERFSGSNSANTATLSISGTQALDEADYYCQAWDSSIVIFGGGTRLTVL
B17: the “ELISA (T/B)” value in the assay with human plasma kallikrein [1] amounted to 38.4 T/B ratio. For the same molecule, in the assay with human plasma kallikrein [2], the Ki was found to be 4.9 nM.

B18: M29-D09 (antibody, V domains shown)
VH: B17 VH
VL: B17 VL with R56A, V57I, S58P
Regarding B18, the “ELISA (T/B)” value with human plasma kallikrein [1] amounted to 47.5 T/B ratio. Moreover, the Ki in the assay with human plasma kallikrein [2] came to 0.7 nM.

B19: M41-A11 (antibody, V domains shown)
VH: EVQLLESGGGLVQPGGSLRLSCAASGFTFSHYRMSWVRQAPGKGLEWVSSIYPSGGRTVYADSVKGRFTISRDNSKNTLYLQMNSLRAEDTAVYYCAKDKFEWRLLFRGIGNDAFDIWGQGTMVTVSS
VL: QSVLTQPPSVSVSPGQTASITCSGDKLGDKYTSWYQQRPGQSPVLVIYQDIKRPSGIPERFSGSNSGNTATLTISGTQAMDEADYYCQAWDSPNARVFGSGTKVTVL
B19: the “ELISA (T/B)” value in the assay with human plasma kallikrein [1] came to 28 T/B ratio.

B20: M145-D11 (antibody, V domains shown)
VH: B19 VH
VL: B19 VL
With B20, the “ELISA (T/B)” value with human plasma kallikrein [1] is 40 T/B ratio.

B21: M152-A12 (antibody, V domains shown)
VH: EVQLLESGGGLVQPGGSLRLSCAASGFTFSPYFMGWVRQAPGKGLEWVSGIGPSGGSTTYADSVKGRFTISRDNSKNTLYLQMNSLRAEDTAVYYCAREGPPYSSGWYRGLRQYHFDYWGQGTLVTVSS
VL: DIQMTQSPSSLSASVGDRVTITCRASQSISSYLSWYQQRPGKAPNLLIYAASSLQSGVPSRFSGSGSGTDFTLTISSLQPEDFATYYCQQSISIPRTFGQGTKVEVK
B21: the “ELISA (T/B)” value with human plasma kallikrein [1] was found to be 19 T/B ratio.
